# Patent US20220227848A1 (NORDIC BIOSCIENCE A S, published 2022)
# B1: monoclonal antibody 10F6 (antibody, mouse IgG2b, kappa, V domains shown)
# VH: EVKLVESGGGLVKPGGSLKLSCAASGFTFSSYAMSWVRQTPEKRLAWVASISTAGRTYYPDTVRGRITISRDNARNILYLQMSSLRSEDTAIYYCARPDYDYDGYINWGQGTLVTVSA
# VL: DIVMTQAAFSNPVTLGTSAYISCRSSKSLLHSNGVTYLYWYLQKPGQSPQLLIYQMSNLASGVPDRFSSSGSGTDFTLRISRVEAEDVGVYYCAQNLELPLTFGAGTKLELKR
# notes: Mouse (Balb/C) hybridoma antibody purified on an IgG column; also called PRO-C23 antibody 10F6; PRO-C23 antibody
# Columns and labels:
# [1] = molecular target: T1, selection peptide GLPVPGCWHK, the last 10 amino acids of the C-terminus of type XXIII collagen alpha 1 chain …; assay: figure legend (FIG. 1A/1B), PRO-C23 competitive ELISA
# T1 construct: Synthetic peptide (Genscript); also called target peptide; standard peptide
# T1 peptide: GLPVPGCWHK
# Description: (§1) ELISA-plates used for the assay development were Streptavidin-coated from Roche (cat.: 11940279). All ELISA plates were analyzed with the ELISA reader from Molecular Devices, SpectraMax M, (CA, USA). The selected monoclonal antibody was labelled with horseradish peroxidase (HRP) using the Lightning link HRP labeling kit according to the instructions of the manufacturer (Innovabioscience, Babraham, Cambridge, UK). A 96-well streptavidin plate was coated with biotin-[…] (SEQ. ID No. 1) (Genscript, USA) and incubated 30 minutes at 20° C. 20 μL of standard peptide or samples were added to appropriate wells, followed by 100 μL of HRP conjugated monoclonal antibody 10F6, and incubated 20 hour at 4° C. Finally, 100 μL tetramethylbenzidine (TMB) (Kem-En-Tec cat.4380H) was added and the plate was incubated 15 minutes at […] in the dark. All the above incubation steps included shaking at 300 rpm. After each incubation step, the plate was washed five times. The TMB reaction was stopped by adding 100 μL of stopping solution (1% H₂SO₄) and measured at 450 nm with 650 nm as the reference.
# (§2) Like type XXIII collagen, type XIII and XXV collagens are also transmembrane collagens and share highly similar sequences in their C-terminus (FIG. 1A). To fully investigate the specificity of the antibody, a series of peptides were synthesized and included in the inhibition test. […] (SEQ. ID No. 5) (FIG. 1B).
# [2] = molecular target: T2, truncated peptide GLPVPGCWH; assay: competitive ELISA (PRO-C23 assay), peptide inhibition test
# T2 peptide: GLPVPGCWH
# Description: as §1, §2
# [3] = molecular target: T3, type XXV collagen C-terminal peptide GLPMPGCWQK; assay: as above
# T3 construct: Synthetic peptide (Genscript); also called peptide from type XXV collagen; deselection peptide
# T3 peptide: GLPMPGCWQK
# Description: as §1, §2
# [4] = molecular target: T4, type XIII collagen C-terminal peptide GLPVQGCWNK; assay: as above
# T4 construct: Synthetic peptide (Genscript); also called peptide from type XIII collagen; deselection peptide
# T4 peptide: GLPVQGCWNK
# Description: as §1, §2
# [5] = molecular target: T5, elongated peptide GLPVPGCWHKA; assay: as above
# T5 peptide: GLPVPGCWHKA
# Description: as §1, §2
binder,measurement,setting,value
B1,binding result,[1],binds
same,binding result,[2],no binding
same,binding result,[3],no binding
same,binding result,[4],no binding
same,binding result,[5],no binding
